Experimental data as given in article PMC6405930, “Conservation of the Amyloid Interactome Across Diverse Fibrillar Structures” (Scientific Reports, 2019).

B1: Ig γ -3 chain C region: plasma/CSF protein bound to fibrils (protein, UniProt P01860 1-446, looked up)
Immunoglobulin heavy constant …: ASTKGPSVFPLAPCSRSTSGGTAALGCLVKDYFPEPVTVSWNSGALTSGVHTFPAVLQSSGLYSLSSVVTVPSSSLGTQTYTCNVNHKPSNTKVDKRVELKTPLGDTTHTCPRCPEPKSCDTPPPCPRCPEPKSCDTPPPCPRCPEPKSCDTPPPCPRCPAPELLGGPSVFLFPPKPKDTLMISRTPEVTCVVVDVSHEDPEVQFKWYVDGVEVHNAKTKPREEQYNSTFRVVSVLTVLHQDWLNGKEYKCKVSNKALPAPIEKTISKTKGQPREPQVYTLPPSREEMTKNQVSLTCLVKGFYPSDIAVEWESSGQPENNYNTTPPMLDSDGSFFLYSKLTVDKSRWQQGNIFSCSVMHEALHNRFTQKSLSLSPELQLEESCAEAQDGELDGLWTTITIFITLFLLSVCYSATVTFFKVKWIFSSVVDLKQTIIPDYRNMIGQGA
B2: Histidine-rich glycoprotein (protein, UniProt P04196 19-525, looked up)
Histidine-rich glycoprotein: VSPTDCSAVEPEAEKALDLINKRRRDGYLFQLLRIADAHLDRVENTTVYYLVLDVQESDCSVLSRKYWNDCEPPDSRRPSEIVIGQCKVIATRHSHESQDLRVIDFNCTTSSVSSALANTKDSPVLIDFFEDTERYRKQANKALEKYKEENDDFASFRVDRIERVARVRGGEGTGYFVDFSVRNCPRHHFPRHPNVFGFCRADLFYDVEALDLESPKNLVINCEVFDPQEHENINGVPPHLGHPFHWGGHERSSTTKPPFKPHGSRDHHHPHKPHEHGPPPPPDERDHSHGPPLPQGPPPLLPMSCSSCQHATFGTNGAQRHSHNNNSSDLHPHKHHSHEQHPHGHHPHAHHPHEHDTHRQHPHGHHPHGHHPHGHHPHGHHPHGHHPHCHDFQDYGPCDPPPHNQGHCCHGHGPPPGHLRRRGPGKGPRPFHCRQIGSVYRLPPLRKGEVLPLPEANFPSFPLPHHKHPLKPDNQPFPQSVSESCPGKFKSGFPQVSMFFTHTFPK
B3: Apolipoprotein A-IV: plasma/CSF protein bound to fibrils (protein, UniProt P06727 21-396, looked up)
Apolipoprotein A-IV: EVSADQVATVMWDYFSQLSNNAKEAVEHLQKSELTQQLNALFQDKLGEVNTYAGDLQKKLVPFATELHERLAKDSEKLKEEIGKELEELRARLLPHANEVSQKIGDNLRELQQRLEPYADQLRTQVSTQAEQLRRQLTPYAQRMERVLRENADSLQASLRPHADELKAKIDQNVEELKGRLTPYADEFKVKIDQTVEELRRSLAPYAQDTQEKLNHQLEGLTFQMKKNAEELKARISASAEELRQRLAPLAEDVRGNLRGNTEGLQKSLAELGGHLDQQVEEFRRRVEPYGENFNKALVQQMEQLRQKLGPHAGDVEGHLSFLEKDLRDKVNSFFSTFKEKESQDKTLSLPELEQQQEQQQEQQQEQVQMLAPLES

What was measured:
C-36 fibrils [1] = target: T1, C-36 fibrils (Homo sapiens, UniProt P01009); experiment: Fibril incubation with CSF, quantitative MS/MS of bound proteins; type: binding; design: key to Identification status of CSF protein bound: C-36: *: Identified, but not quantified; —: Not identified in any of the samples; conditions: for Identification status of CSF protein bound: C-36: symbol cells
T1 construct: the 36 residue C-terminal fragment of α1-antitrypsin (C-36)

FAS4-AD aggregates [2] = test system: T2, FAS4-AD aggregates; experiment: Fibril incubation with plasma, quantitative MS/MS of bound proteins; type: binding, human; design: key to Identification status of plasma protein bound: FAS4-AD: *: Identified, but not quantified; —: Not identified in any of the samples; conditions: for Identification status of plasma protein bound: FAS4-AD: symbol cells
T2 construct: aggregates of a mutated version of the FAS1-4 domain of TGFBIp
Experimental: (§1) Plasma and CSF solutions were centrifuged (40,000 g, 20 min) to remove any aggregates. The protein concentration was determined using 280 nm absorbance assuming 1 Abs = 1 mg/mL. […] Control samples (without fibril material) were prepared similarly. All samples were incubated at room temperature for one hour under gentle agitation. Fibrils and fibril-bound proteins were pelleted by centrifugation at 17,000 g for 30 minutes. The supernatant (175 μL) was removed and the aggregate was re-suspended in 175 μL PBS and pelleted again before further preparation for gel analysis and spin-filter assisted digest for quantitative MS/MS.
(§2) The fibril-protein pellets were transferred to spin-filters (0.22 μm), washed twice in PBS (100 μL) and once in 1 M NaCl (100 μL). The fibrils and fibril-bound proteins were dissolved by one-hour incubation in 100 μL 6 M guanidinium chloride followed by elution from the spin-filter. The eluted proteins were loaded onto a 3 kDa MWCO filter unit for filter-assisted unfolding, reduction, alkylation, and trypsin digestion. In brief, samples were washed twice in 8 M urea, once in 8 M urea with 50 mM DTT, once in 8 M urea with 50 mM iodoaceteamide, and twice in 8 M Urea. The filter units were dried by centrifugation (14,000 g in 30 minutes) after every addition. Trypsin digestion was carried out with 0.25 μg sequencing grade trypsin from Sigma Aldrich in 50 mM ammonium bicarbonate overnight at 37 °C. The tryptic peptides were collected by centrifugation, acidified with TFA (0.1%) and micro-purified using POROS R2 column material (Applied Biosystems) packed in P200 pipette tips (Sarstedt).
(§3) LC-MS/MS analyses were performed on an EASY-nLC II system (Thermo Fisher Scientific) connected to a TripleTOF 5600+ mass spectrometer (Sciex) equipped with a NanoSpray III source (Sciex) and operated under Analyst TF 1.6.0 control.
(§4) The micro-purified tryptic peptides were dissolved in 0.1% formic acid, injected and trapped on an in-house packed trap column (2 cm × 100 μm I.D) with RP ReproSil-Pur C18-AQ 3 μm resin (Dr. Maisch GmbH). Peptides were eluted from the trap column and separated on a 15 cm analytical column (75 μm i.d.) packed in-house in a pulled emitter with RP ReproSil-Pur C18-AQ 3 μm resin (Dr. Maisch GmbH). Elution from the analytical column was performed with a linear gradient from 5% to 35% phase B (90% acetonitrile with 0.1% formic acid) over 20 min for protein identification and 50 min for quantitative analysis, respectively.
(§5) All samples were analysed three times, yielding nine MS/MS experiments for each fibril for both plasma and CSF. For the area-based extracted ion chromatogram (XIC) quantification, the acquisition method was set up as an information-dependent acquisition (IDA) experiment collecting up to 25 MS/MS spectra in each 1.6 sec cycle using an exclusion window of 6 sec.
(§6) XIC quantification was based on the average ion intensity of the three most abundant peptides for each protein. Only proteins quantified in at least four out of nine MS/MS experiments per fibril were included in the quantification. The total ion scores were visualized after grouping the proteins according to function (Figure S11).
(§7) For each MS/MS experiment, the ion intensities of the individual proteins were normalized to the total ion intensity of that MS/MS experiment to achieve a relative protein composition. The contribution of each protein was averaged over all nine MS/MS experiments (Tables 1 and 2).

Ab2 fibrils [3] = test system: T3, Ab2 fibrils; experiment: as above; type: binding, human; conditions: 50:1 w/w plasma protein:fibril
T3 construct: Two structurally distinct fibrils of the Aβ(1–40) peptide associated with AD
Experimental: as §1, §2, §3, §4, §5, §6, §7

αSN fibrils [4] = target: T4, αSN fibrils (Homo sapiens, UniProt P37840); experiment: Fibril incubation with CSF, quantitative MS/MS of bound proteins; type: binding; design: key to Identification status of CSF protein bound: αSN: *: Identified, but not quantified; —: Not identified in any of the samples; conditions: for Identification status of CSF protein bound: αSN: symbol cells
FAS4-AD aggregates [5] = test system: T2, FAS4-AD aggregates; experiment: as above; type: binding, human; design: key to Identification status of CSF protein bound: FAS4-AD: *: Identified, but not quantified; —: Not identified in any of the samples; conditions: symbol cells
C-36 fibrils [6] = target: T1, C-36 fibrils; experiment: Fibril incubation with plasma, quantitative MS/MS of bound proteins; type: binding; design: key to Identification status of plasma protein bound: C-36: *: Identified, but not quantified; —: Not identified in any of the samples; conditions: for Identification status of plasma protein bound: C-36: symbol cells
Experimental: as §1, §2, §3, §4, §5, §6, §7

Ab2 fibrils [7] = test system: T3, Ab2 fibrils; experiment: Fibril incubation with CSF, quantitative MS/MS of bound proteins; type: binding, human; conditions: 4:1 w/w CSF protein:fibril
Ab1 fibrils [8] = test system: T5, Ab1 fibrils; experiment: Fibril incubation with plasma, quantitative MS/MS of bound proteins; type: binding, human; conditions: 50:1 w/w plasma protein:fibril
T5 construct: Synthetic amyloid β peptide 1–40 was purchased from Caslo Aps (Lyngby, Denmark); purchased Caslo Aps (Lyngby, Denmark); host or cells: synthetic peptide
Experimental: Plasma and CSF solutions were centrifuged (40,000 g, 20 min) to remove any aggregates. The protein concentration was determined using 280 nm absorbance assuming 1 Abs = 1 mg/mL. […] Control samples (without fibril material) were prepared similarly. All samples were incubated at room temperature for one hour under gentle agitation. Fibrils and fibril-bound proteins were pelleted by centrifugation at 17,000 g for 30 minutes. The supernatant (175 μL) was removed and the aggregate was re-suspended in 175 μL PBS and pelleted again before further preparation for gel analysis and spin-filter assisted digest for quantitative MS/MS.
as §2, §3, §4, §5, §6, §7

αSN fibrils [9] = target: T4, αSN fibrils; experiment: as above; type: binding; design: key to Identification status of plasma protein bound: αSN: *: Identified, but not quantified; —: Not identified in any of the samples; conditions: for Identification status of plasma protein bound: αSN: symbol cells
Experimental: as §1, §2, §3, §4, §5, §6, §7

Ab1 fibrils [10] = test system: T5, Ab1 fibrils; experiment: Fibril incubation with CSF, quantitative MS/MS of bound proteins; type: binding, human; conditions: 4:1 w/w CSF protein:fibril
glucagon fibrils [11] = target: T6, glucagon fibrils (Homo sapiens, UniProt P01275); experiment: as above; type: binding; conditions: 4:1 w/w CSF protein:fibril
T6 construct: fibrils of the peptide hormone glucagon

glucagon fibrils [12] = target: T6, glucagon fibrils; experiment: Fibril incubation with plasma, quantitative MS/MS of bound proteins; type: binding; conditions: 50:1 w/w plasma protein:fibril
Experimental: as §1, §2, §3, §4, §5, §6, §7

T6 sequence (P01275 53-81 limits assumed): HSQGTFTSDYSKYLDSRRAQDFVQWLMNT
T1 sequence (P01009 383-418 limits assumed): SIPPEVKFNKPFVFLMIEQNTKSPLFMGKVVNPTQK

Row | Molecule | Identification status of CSF protein bound: C-36 (C-36 fibrils [1]) | Identification status of plasma protein bound: FAS4-AD (FAS4-AD aggregates [2]) | Relative composition of plasma proteins bound: Ab2 (Ab2 fibrils [3]) | Identification status of CSF protein bound: αSN (αSN fibrils [4]) | Identification status of CSF protein bound: FAS4-AD (FAS4-AD aggregates [5]) | Identification status of plasma protein bound: C-36 (C-36 fibrils [6]) | Relative composition of CSF proteins bound: Ab2 (Ab2 fibrils [7]) | Relative composition of plasma proteins bound: Ab1 (Ab1 fibrils [8]) | Identification status of plasma protein bound: αSN (αSN fibrils [9]) | Relative composition of CSF proteins bound: Ab1 (Ab1 fibrils [10]) | Relative composition of CSF proteins bound: Glucagon (glucagon fibrils [11]) | Relative composition of plasma proteins bound: Glucagon (glucagon fibrils [12]) | Relative composition of CSF proteins bound: C-36 (C-36 fibrils [1]; 4:1 w/w CSF protein:fibril) | Relative composition of plasma proteins bound: FAS4-AD (FAS4-AD aggregates [2]; 50:1 w/w plasma protein:fibril) | Relative composition of CSF proteins bound: αSN (αSN fibrils [4]; 4:1 w/w CSF protein:fibril) | Relative composition of plasma proteins bound: C-36 (C-36 fibrils [6]; 50:1 w/w plasma protein:fibril) | Relative composition of plasma proteins bound: αSN (αSN fibrils [9]; 50:1 w/w plasma protein:fibril)
1 | B1 | * | — | 1.1 ± 0.1 % of total protein | * | — | * | 3.0 ± 0.2 % of total protein | 1.0 ± 0.1 % of total protein | * | 2.5 ± 0.1 % of total protein | 1.4 ± 0.5 % of total protein | 1.0 ± 0.1 % of total protein |  |  |  |  | 
2 | B2 | * | — | 1.8 ± 0.1 % of total protein | — | — | — | 0.6 ± 0.2 % of total protein | 2.5 ± 0.1 % of total protein | — | 0.4 ± 0.1 % of total protein | 0.1 ± 0.0 % of total protein | 0.4 ± 0.0 % of total protein |  |  |  |  | 
3 | B3 |  |  | 3.5 ± 0.5 % of total protein |  | — |  | 0.5 ± 0.0 % of total protein | 2.7 ± 0.1 % of total protein |  | 1.2 ± 0.1 % of total protein | 0.5 ± 0.1 % of total protein | 1.9 ± 0.2 % of total protein | 1.0 ± 0.1 % of total protein | 1.6 ± 0.2 % of total protein | 1.5 ± 0.2 % of total protein | 2.4 ± 0.4 % of total protein | 3.8 ± 0.6 % of total protein
